Experimental data taken from paper PMC4199913 (The FEBS journal, 2014).

B1: MaTrxR (Methanosarcina acetivorans C2A) (protein)
chain: MNSFLFSGGNMYDLIIIGGGPAGLAAGIYAVRFGLDTLVLEKSEISGQISMSDIVENYPGFPSISGLELMEKYRTHAQEVGVKTKITEVLSVRTEGAKKIVSTDSGDLEAKTLIIATGANPKHLGVPGEKEFISKGVSYCAICDGPFFKNKTVVVVGGGNSAVTDALLLSKVAQNVYLIHRRDRLKAAKVLQDRALATPNIEFILNTLVQEIAGSREGVKKVEKVILQDLNSKESRELSTNGVFIYVGIQPNTEFVNVEKNNEGFIITNRWMETSEKGIYAAGDCRDTPIWQLVAAVRDGAIAATAANEYIESLK

Legend:
[1] = biological target: MaTrx6Δsp (Methanosarcina acetivorans, UniProt Q8TIA1); experiment: turbidimetric insulin reduction, […] nm; format: biochemical; settings: 0.33 mM DTT, 0.13 mM insulin, 100 mM KPO4 pH 6.8, anaerobic
[2] = biological target: MaTrx2 (Methanosarcina acetivorans, UniProt Q8TL30); experiment: turbidimetric insulin reduction, […] nm; format: biochemical; settings: 0.33 mM DTT, 0.13 mM insulin, 100 mM KPO4 pH 6.8, anaerobic
[3] = biological target: MaTrx7 (Methanosarcina acetivorans, UniProt Q8TR15); experiment: turbidimetric insulin reduction, […] nm; format: biochemical; settings: 0.33 mM DTT, 0.13 mM insulin, 100 mM KPO4 pH 6.8, anaerobic
[4] = substrate: NC(=O)C1=CN([C@@H]2O[C@H](COP(=O)(O)OP(=O)(O)OC[C@H]3O[C@@H](n4cnc5c(N)ncnc54)[C@H](O)[C@@H]3O)[C@@H](O)[C@H]2O)C=CC1; experiment: purified protein; format: biochemical, Methanosarcina acetivorans; settings: 1 mM DTNB, 0.5 µM MaTrxR, 50 mM Tris-HCl 150 mM NaCl pH 7.2, anaerobic
[5] = substrate: NC(=O)C1=CN([C@@H]2O[C@H](COP(=O)(O)OP(=O)(O)OC[C@H]3O[C@@H](n4cnc5c(N)ncnc54)[C@H](OP(=O)(O)O)[C@@H]3O)[C@@H](O)[C@H]2O)C=CC1; experiment: purified protein; format: biochemical, Methanosarcina acetivorans; settings: 1 mM DTNB, 0.5 µM MaTrxR, 50 mM Tris-HCl 150 mM NaCl pH 7.2, anaerobic

Molecule | turbidimetric insulin reduction, 650 nm [1] | turbidimetric insulin reduction, 650 nm [2] | turbidimetric insulin reduction, 650 nm [3] | Km [4] [µM] | kcat [4] [s⁻¹] | kcat/Km [4] [M⁻¹ s⁻¹] | Km [5] [µM] | kcat [5] [s⁻¹] | kcat/Km [5] [M⁻¹ s⁻¹]
OC(CS)C(O)CS (stereo not drawn) [DTT] | All three purified MaTrxs exhibited both DTT- and lipoamide-dependent insulin reduction activity | All three purified MaTrxs exhibited both DTT- and lipoamide-dependent insulin reduction activity | All three purified MaTrxs exhibited both DTT- and lipoamide-dependent insulin reduction activity | – | – | – | – | – | –
B1 | – | – | – | 736 ± 57 | 0.817 | 1120 | 6.3 ± 0.5 | 0.65 | 103000
